# Like-named read-outs stand apart in the source and are kept apart here.
# T1: DLAR D1D2 (Drosophila melanogaster, UniProt P16621)
# T1 construct: DLAR 1448-2029; His tag (pET-15b or pET-22b); made in house; host or cells: E. coli BL21(DE3)
# T1 sequence (P16621 1448-2029): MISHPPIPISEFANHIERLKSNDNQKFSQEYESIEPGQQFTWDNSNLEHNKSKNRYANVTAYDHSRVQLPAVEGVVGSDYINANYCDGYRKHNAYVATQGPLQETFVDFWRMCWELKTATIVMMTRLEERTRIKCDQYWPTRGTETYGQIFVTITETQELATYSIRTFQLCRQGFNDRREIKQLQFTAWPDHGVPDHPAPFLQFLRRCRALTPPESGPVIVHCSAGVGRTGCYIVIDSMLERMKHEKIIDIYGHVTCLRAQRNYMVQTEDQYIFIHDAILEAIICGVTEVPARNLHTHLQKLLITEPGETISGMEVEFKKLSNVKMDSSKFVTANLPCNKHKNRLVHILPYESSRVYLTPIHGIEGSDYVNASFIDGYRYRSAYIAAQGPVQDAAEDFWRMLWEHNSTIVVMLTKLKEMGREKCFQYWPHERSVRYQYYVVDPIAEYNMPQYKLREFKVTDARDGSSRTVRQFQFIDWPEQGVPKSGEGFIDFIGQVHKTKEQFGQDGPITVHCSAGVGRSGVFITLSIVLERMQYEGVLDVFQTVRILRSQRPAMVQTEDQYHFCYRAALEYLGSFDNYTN
# T2: DLAR D1 (Drosophila melanogaster, UniProt P16621)
# T2 construct: DLAR 1448-1746; His tag (pET-15b or pET-22b); made in house; host or cells: E. coli BL21(DE3)
# T2 sequence (P16621 1448-1746): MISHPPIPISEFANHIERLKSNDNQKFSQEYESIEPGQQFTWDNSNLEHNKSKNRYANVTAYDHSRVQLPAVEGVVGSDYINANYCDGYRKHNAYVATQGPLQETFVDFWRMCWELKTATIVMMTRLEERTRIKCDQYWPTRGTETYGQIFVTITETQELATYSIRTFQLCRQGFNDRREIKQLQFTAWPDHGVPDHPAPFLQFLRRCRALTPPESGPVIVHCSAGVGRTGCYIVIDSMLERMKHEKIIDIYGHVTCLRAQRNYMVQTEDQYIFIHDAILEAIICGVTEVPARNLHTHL
# T3: DLAR D1HSS D2 (Drosophila melanogaster, UniProt P16621, C1670S)
# T3 construct: DLAR 1448-2029; His tag (pET-15b or pET-22b); made in house; host or cells: E. coli BL21(DE3)
# T3 sequence (P16621 1448-2029 C1670S): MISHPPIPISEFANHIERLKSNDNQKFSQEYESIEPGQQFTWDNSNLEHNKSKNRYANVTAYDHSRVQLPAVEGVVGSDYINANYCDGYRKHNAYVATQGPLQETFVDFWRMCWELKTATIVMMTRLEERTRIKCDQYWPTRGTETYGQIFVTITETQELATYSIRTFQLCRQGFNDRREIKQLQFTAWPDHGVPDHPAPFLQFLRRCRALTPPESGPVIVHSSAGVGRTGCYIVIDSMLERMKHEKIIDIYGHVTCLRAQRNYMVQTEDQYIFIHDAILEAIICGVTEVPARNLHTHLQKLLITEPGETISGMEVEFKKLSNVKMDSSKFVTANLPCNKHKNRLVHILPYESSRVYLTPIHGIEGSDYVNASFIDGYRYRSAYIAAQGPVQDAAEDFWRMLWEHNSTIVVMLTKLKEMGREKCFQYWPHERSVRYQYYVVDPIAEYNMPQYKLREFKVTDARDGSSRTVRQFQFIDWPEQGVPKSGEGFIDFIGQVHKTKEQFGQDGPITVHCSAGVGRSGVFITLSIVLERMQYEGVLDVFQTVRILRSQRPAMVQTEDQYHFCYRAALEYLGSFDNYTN
# B1: PTP99A D1 D2 (Drosophila melanogaster) (protein)
# chain: DEIRAAVPVNEFAKHVASLHADGDIGFSREYEAIQNECISDDLPCEHSQHPENKRKNRYLNITAYDHSRVHLHPTPGQKKNLDYINANFIDGYQKGHAFIGTQGPLPDTFDCFWRMIWEQRVAIIVMITNLVERGRRKCDMYWPKDGVETYGVIQVKLIEEEVMSTYTVRTLQIKHLKLKKKKQCNTEKLVYQYHYTNWPDHGTPDHPLPVLNFVKKSSAANPAEAGPIVVHCSAGVGRTGTYIVLDAMLKQIQQKNIVNVFGFLRHIRAQRNFLVQTEEQYIFLHDALVEAIASGETNLMAEQVEELKNCTPYLEQQYKNIIQFQPKDIHIASAMKQVNSIKNRGAIFPIEGSRVHLTPKPGEDGSDYINASWLHGFRRLRDFIVTQHPMAHTIKDFWQMVWDHNAQTVVLLSSLDDINFAQFWPDEATPIESDHYRVKFLNKTNKSDYVSRDFVIQSIQDDYELTVKMLHCPSWPEMSNPNSIYDFIVDVHERCNDYRNGPIVIVDRYGGAQACTFCAISSLAIEMEYCSTANVYQYAKLYHNKRPGVWTSSEDIRVIYNILSFLPGNLNLLKRTALRTEFEDVTTATPDLYSKICSNG
# B2: PTP99A D1 (Drosophila melanogaster) (protein)
# chain: DEIRAAVPVNEFAKHVASLHADGDIGFSREYEAIQNECISDDLPCEHSQHPENKRKNRYLNITAYDHSRVHLHPTPGQKKNLDYINANFIDGYQKGHAFIGTQGPLPDTFDCFWRMIWEQRVAIIVMITNLVERGRRKCDMYWPKDGVETYGVIQVKLIEEEVMSTYTVRTLQIKHLKLKKKKQCNTEKLVYQYHYTNWPDHGTPDHPLPVLNFVKKSSAANPAEAGPIVVHCSAGVGRTGTYIVLDAMLKQIQQKNIVNVFGFLRHIRAQRNFLVQTEEQYIFLHDALVEAIASGETNLMAEQVEE
# What was measured:
# DLAR D1D2 [1] = target: T1, DLAR D1D2; test: Dephosphorylation of phosphotyrosine peptides (malachite green), DLAR D1D2; type: biochemical; conditions: 0.01 µM protein, 25 mM citrate pH 6.0, 15 min at 25°C, malachite green
# Text: (§1) Substrates of PTPs characterized thus far include the activation loop segments of various kinases and regulatory loops of other signaling proteins. Suitably designed peptide substrates mimic the physiologically relevant substrates of PTPs. In the present study, peptide substrates were designed for DLAR for which more information was available on its interacting partners. […] The five peptides were chosen based on their distinct charge distributions around the central phosphotyrosine residue. The phosphorylated as well as non-phosphorylated peptides were obtained from GL Bioscience, China. The peptides were >95% pure and were used after a single round of desalting using a Sephadex G25 column (GE Healthcare). The concentration of the peptide samples for biochemical studies was ascertained by UV absorption at 268 nm for the pY residue.
# (§2) Phosphatase activity of the recombinant PTP domains was determined by using para-Nitrophenylphosphate (pNPP), a small molecule generic substrate, as well as phosphotyrosine containing peptides. The pNPP assay was performed as reported previously, with a modification in the buffer composition (25 mM Citrate, Glycine and HEPES (CGH), pH 6.5, 100 mM NaCl and 2 mM DTT). Phosphatase activity with the phosphotyrosine peptides was ascertained by the malachite green reaction as described for PTPs previously. Briefly, the reaction mixture comprised of 0.01 µM protein incubated with increasing concentrations of different peptides in 25 mM citrate buffer pH 6.0, 100 mM NaCl and 2 mM DTT for 15 min at 25°C. The reaction was stopped by the addition of the Biomol Green reagent (Enzo Life Sciences) and the colour developed after 20 min was quantified at 650 nm. For all the assays, kinetic constants for the steady state catalysis were obtained by fitting the reaction curves to the Michaelis-Menten equation using the nonlinear regression module of Sigma plot software (Systat Software, Inc.).
# DLAR D1 D2HSS [2] = target: T4, DLAR D1 D2HSS (Drosophila melanogaster, UniProt P16621, C1961S); type: biochemical; conditions: 0.01 µM protein, 25 mM citrate pH 6.0, 15 min at 25°C, malachite green
# T4 construct: DLAR 1448-2029; His tag (pET-15b or pET-22b); made in house; host or cells: E. coli BL21(DE3)
# T4 sequence (P16621 1448-2029 C1961S): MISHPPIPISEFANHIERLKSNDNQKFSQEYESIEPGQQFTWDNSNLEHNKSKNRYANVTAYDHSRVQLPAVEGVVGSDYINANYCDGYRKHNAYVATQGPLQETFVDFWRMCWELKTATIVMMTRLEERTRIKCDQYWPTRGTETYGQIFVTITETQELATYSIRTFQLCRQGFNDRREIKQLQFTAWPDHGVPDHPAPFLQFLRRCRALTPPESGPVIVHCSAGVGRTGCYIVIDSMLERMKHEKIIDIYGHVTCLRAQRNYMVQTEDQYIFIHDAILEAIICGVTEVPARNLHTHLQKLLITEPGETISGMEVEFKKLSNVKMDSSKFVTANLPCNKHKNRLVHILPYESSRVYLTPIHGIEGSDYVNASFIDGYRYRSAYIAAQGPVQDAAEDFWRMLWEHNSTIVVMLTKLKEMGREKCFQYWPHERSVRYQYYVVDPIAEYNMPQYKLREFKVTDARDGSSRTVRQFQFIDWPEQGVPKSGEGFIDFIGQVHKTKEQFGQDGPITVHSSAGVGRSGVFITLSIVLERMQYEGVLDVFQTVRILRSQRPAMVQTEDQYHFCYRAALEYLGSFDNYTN
# Text: as §1, §2
# DLAR D1 = target: T2, DLAR D1; test: Dephosphorylation of phosphotyrosine peptides (malachite green), DLAR D1; type: biochemical; conditions: 0.01 µM protein, 25 mM citrate pH 6.0, 15 min at 25°C, malachite green
# Text: as §1, §2
# DLAR D1 D2HSS [3] = target: T4, DLAR D1 D2HSS; test: Surface Plasmon Resonance peptide binding, DLAR D1 D2HSS; conditions: two-site model, read-out: ka
# Procedure: (§3) The binding of phosphotyrosine peptides to the PTP domains was studied by Surface Plasmon Resonance on a Biacore-2000 instrument (BIAcore, AB). All experiments were conducted at 25°C. DLAR PTP domains were immobilized onto carboxylated dextran CM5 chips (BIAcore AB) using the standard amine coupling procedure as recommended by the manufacturer. Binding and kinetic assays were performed in 10 mM HEPES, pH 8.0, 150 mM NaCl, 10 mM DTT and 3 mM EDTA at a flow rate of 5 µL/min. The peptides were used at concentrations ranging from 50–700 µM. Dissociation was initiated by replacing the analyte with buffer. The association and dissociation curves were monitored for 600 sec. Sensograms were analyzed with BIA-evaluation software version 2 (BIAcore AB). Sensograms for DLAR D1D2, DLAR D1HSSD2 and DLAR D1D2HSS were fitted to two-site binding equations. DLAR D1 and DLAR D2 sensograms were fitted using a single-site binding model.
# DLAR D1D2 [4] = target: T1, DLAR D1D2; test: Surface Plasmon Resonance peptide binding, DLAR D1D2; conditions: two-site model; for kon: read-out: ka
# Procedure: as §3
# DLAR D1HSS D2 = target: T3, DLAR D1HSS D2; test: Surface Plasmon Resonance peptide binding, DLAR D1HSS D2; conditions: two-site model, read-out: ka
# Procedure: as §3
# [5] = substrate: CC(C)C[C@H](NC(=O)[C@H](C)NC(=O)CNC(=O)[C@H](Cc1ccc(OP(=O)(O)O)cc1)NC(=O)[C@H](CC(=O)O)NC(=O)[C@@H]1CCCN1C(=O)[C@H](CCC(=O)O)NC(=O)[C@H](C)NC(=O)[C@@H](N)[C@@H](C)O)C(=O)N[C@@H](Cc1ccc(O)cc1)C(=O)N[C@@H](CCC(=O)O)C(=O)O; test: purified protein, by the assay type; conditions: other: 0.01 µM protein, 25 mM citrate pH 6.0, 15 min at 25°C, malachite green
# Procedure: (§4) Phosphatase activity with the phosphotyrosine peptides was ascertained by the malachite green reaction as described for PTPs previously [14]. Briefly, the reaction mixture comprised of 0.01 µM protein incubated with increasing concentrations of different peptides in 25 mM citrate buffer pH 6.0, 100 mM NaCl and 2 mM DTT for 15 min at 25°C. The reaction was stopped by the addition of the Biomol Green reagent (Enzo Life Sciences) and the colour developed after 20 min was quantified at 650 nm. For all the assays, kinetic constants for the steady state catalysis were obtained by fitting the reaction curves to the Michaelis-Menten equation using the nonlinear regression module of Sigma plot software (Systat Software, Inc.).
# [6] = substrate: CC[C@H](C)[C@H](NC(=O)[C@H](CC(=O)O)NC(=O)[C@H](CCCNC(=N)N)NC(=O)[C@@H](N)[C@@H](C)O)C(=O)N[C@@H](Cc1ccc(OP(=O)(O)O)cc1)C(=O)N[C@@H](CCC(=O)O)C(=O)N[C@H](C(=O)N[C@@H](CC(=O)O)C(=O)N[C@@H](Cc1ccc(O)cc1)C(=O)N[C@@H](Cc1ccc(O)cc1)C(=O)N[C@@H](CCCNC(=N)N)C(=O)N[C@@H](CCCCN)C(=O)O)[C@@H](C)O; test: purified protein, by the assay type; conditions: other: 0.01 µM protein, 25 mM citrate pH 6.0, 15 min at 25°C, malachite green
# Procedure: as §4
# [7] = pH 8, SPR Biacore-2000, 25°C, 10 mM HEPES pH 8.0, 150 mM NaCl, 10 mM DTT, 3 mM EDTA, peptides 50–700 µM, first binding site
# [8] = pH 8, SPR, 25°C, pH 8.0, second binding site
Molecule,Km (DLAR D1D2 [1]),Km (DLAR D1 D2HSS [2]),Km (DLAR D1),kon (DLAR D1 D2HSS [3]; [7]),kon (DLAR D1 D2HSS [3]; [8]),"Kd (DLAR D1D2 [4]; SPR, 25°C, pH 8.0, first binding site)",kon (DLAR D1D2 [4]; [7]),kon (DLAR D1D2 [4]; [8]),kon (DLAR D1HSS D2; [7]),kon (DLAR D1HSS D2; [8]),Km [5],Vmax [5],kcat [5],kcat/Km [5],Km [6],Vmax [6],kcat [6],kcat/Km [6]
CC[C@H](C)[C@H](NC(=O)[C@H](CC(=O)O)NC(=O)[C@H](CCCNC(=N)N)NC(=O)[C@@H](N)[C@@H](C)O)C(=O)N[C@@H](Cc1ccc(OP(=O)(O)O)cc1)C(=O)N[C@@H](CCC(=O)O)C(=O)N[C@H](C(=O)N[C@@H](CC(=O)O)C(=O)N[C@@H](Cc1ccc(O)cc1)C(=O)N[C@@H](Cc1ccc(O)cc1)C(=O)N[C@@H](CCCNC(=N)N)C(=O)N[C@@H](CCCCN)C(=O)O)[C@@H](C)O [Insulin Receptor peptide],110 ± 7.82 µM,45.3 ± 4.1 µM,59.5 ± 5.6 µM,137 ± 2.84 M⁻¹ s⁻¹,12.3 ± 0.02 M⁻¹ s⁻¹,62.2 ± 0.48 µM,110 ± 2.32 M⁻¹ s⁻¹,2860 ± 90000 M⁻¹ s⁻¹,72.6 ± 1.2 M⁻¹ s⁻¹,74.5 ± 1.6 M⁻¹ s⁻¹,,,,,,,,
B1,,,,,,,,,,,112.42 ± 10.14 µM,17.1 µmol/min/mg,21.1 ± 0.82 s⁻¹,188000 ± 12900 M⁻¹ s⁻¹,35.75 ± 2.08 µM,46 µmol/min/mg,56.9 ± 1.03 s⁻¹,1.638e+06 ± 7400 M⁻¹ s⁻¹
B2,,,,,,,,,,,309.04 ± 33.32 µM,1.26 µmol/min/mg,0.84 ± 0.04 s⁻¹,2718 ± 15 M⁻¹ s⁻¹,1017 ± 161.84 µM,2.37 µmol/min/mg,1.58 ± 0.11 s⁻¹,1550 ± 22 M⁻¹ s⁻¹
